The source of these data is PMC5477842 (Science (New York, N.Y.), 2016).

The target in data set [1] is calmodulin (UniProt P0DP23 1-149). The data set is described as follows: cryo-EM structure.
Data set [2] deals with the molecule itself. The data set is described as follows: cryo-EM structure.

B1: Truncated rat Eag1 (rEag1Δ; Kv10.1 with residues 773-886 removed) (natural protein, UniProt Q63472 1-962, looked up)
chain: MTMAGGRRGLVAPQNTFLENIVRRSNDTNFVLGNAQIVDWPIVYSNDGFCKLSGYHRAEVMQKSSACSFMYGELTDKDTVEKVRQTFENYEMNSFEILMYKKNRTPVWFFVKIAPIRNEQDKVVLFLCTFSDITAFKQPIEDDSCKGWGKFARLTRALTSSRGVLQQLAPSVQKGENVHKHSRLAEVLQLGSDILPQYKQEAPKTPPHIILHYCVFKTTWDWIILILTFYTAILVPYNVSFKTRQNNVAWLVVDSIVDVIFLVDIVLNFHTTFVGPAGEVISDPKLIRMNYLKTWFVIDLLSCLPYDVINAFENVDEGISSLFSSLKVVRLLRLGRVARKLDHYIEYGAAVLVLLVCVFGLAAHWMACIWYSIGDYEIFDEDTKTIRNNSWLYQLALDIGTPYQFNGSGSGKWEGGPSKNSVYISSLYFTMTSLTSVGFGNIAPSTDIEKIFAVAIMMIGSLLYATIFGNVTTIFQQMYANTNRYHEMLNSVRDFLKLYQVPKGLSERVMDYIVSTWSMSRGIDTEKVLQICPKDMRADICVHLNRKVFKEHPAFRLASDGCLRALAMEFQTVHCAPGDLIYHAGESVDSLCFVVSGSLEVIQDDEVVAILGKGDVFGDVFWKEATLAQSCANVRALTYCDLHVIKRDALQKVLEFYTAFSHSFSRNLILTYNLRKRIVFRKISDVKREEEERMKRKNEAPLILPPDHPVRRLFQRFRQQKEARLAAERGGRDLDDLDVEKGNALTDHTSANHSLVKASVVTVRESPATPVSFYPIPEQTLQATVLEVKHELKEDIKALNAKMTSIEKQLSEILRILMSRGSSQSPQDTCEVSRPQSPESDRDIFGAS
modifications: N-acetyl glucosamine on N388 (density observed); glycosylation sites N388 and N406
As to B1, the binding result in data set [1] is “binds”. Besides, the stoichiometry N (usually a count of units in the complex or per binding partner) in data set [2] worked out at 4.
